Measured values from EP4772193A1 (Teijin Pharma Limited, dated 2026).
Read-outs that look alike come from different tables or passages of the source.

T1: recombinant human soluble gpNMB (recombinant human gpNMB-FLAG-His) (human, UniProt Q14956 23-498)
T1 sequence: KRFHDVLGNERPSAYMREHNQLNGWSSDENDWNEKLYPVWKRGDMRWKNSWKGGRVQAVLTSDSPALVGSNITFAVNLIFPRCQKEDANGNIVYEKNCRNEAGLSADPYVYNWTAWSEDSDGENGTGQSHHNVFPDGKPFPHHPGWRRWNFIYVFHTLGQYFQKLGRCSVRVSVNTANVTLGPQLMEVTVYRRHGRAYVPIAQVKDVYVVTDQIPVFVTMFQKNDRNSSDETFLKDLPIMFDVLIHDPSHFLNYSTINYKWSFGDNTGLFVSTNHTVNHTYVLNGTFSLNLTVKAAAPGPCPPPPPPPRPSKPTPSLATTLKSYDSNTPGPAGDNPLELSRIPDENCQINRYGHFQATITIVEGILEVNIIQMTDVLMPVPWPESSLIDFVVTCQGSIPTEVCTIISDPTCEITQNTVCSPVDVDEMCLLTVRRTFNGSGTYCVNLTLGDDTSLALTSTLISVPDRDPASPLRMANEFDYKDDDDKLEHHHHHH


Columns and labels:
[1] = biological target: T1, recombinant human soluble gpNMB …; assay: antigen ELISA
[2] = biological target: T1, recombinant human soluble gpNMB …; assay: antigen ELISA, vs hGPN06-1_H1L1
[3] = biological target: T1, recombinant human soluble gpNMB …; assay: antigen ELISA; remark: listed apart in the source
[4] = biological target: T1, recombinant human soluble gpNMB …; assay: antigen ELISA, vs hGPN18-2_H2L3

Row | Binder | EC50 [1] | Relative binding activity [2] | EC50 [3] | Relative binding activity [4]
1 | hGPN06-1_H1L1 VH D110A (antibody, V domains shown) VH: QVQLVQSGAEVKKPGASVKVSCKASGYTFTDNWMGWVKQRPGQGLEWIGAIDPSDSFTNYNQNFKGRVTMTVDTSISTAYMELSRLRSDDSAVYFCTRSGYYGSPKLGGAYWGQGTLVTVSS VL: EIVLTQSPSSLSASVGDRVTITCSASSSISYMHWYQQKSGTAPKLLIYSTSNLASGVPSRFSGSGSGTDFTFTISSLQPEDAATYYCHQWNSYPCTFGGGTKLEIK | 0.956 nM | 0.79 |  | 
2 | hGPN06-1_H1L1 VH G100A (antibody, V domains shown) VH: QVQLVQSGAEVKKPGASVKVSCKASGYTFTDNWMGWVKQRPGQGLEWIGAIDPSDSFTNYNQNFKGRVTMTVDTSISTAYMELSRLRSDDSAVYFCTRSAYYGSPKLGGDYWGQGTLVTVSS VL: EIVLTQSPSSLSASVGDRVTITCSASSSISYMHWYQQKSGTAPKLLIYSTSNLASGVPSRFSGSGSGTDFTFTISSLQPEDAATYYCHQWNSYPCTFGGGTKLEIK | 65.8 nM | 0.06 |  | 
3 | hGPN06-1_H1L1 VH G103A (antibody, V domains shown) VH: QVQLVQSGAEVKKPGASVKVSCKASGYTFTDNWMGWVKQRPGQGLEWIGAIDPSDSFTNYNQNFKGRVTMTVDTSISTAYMELSRLRSDDSAVYFCTRSGYYASPKLGGDYWGQGTLVTVSS VL: EIVLTQSPSSLSASVGDRVTITCSASSSISYMHWYQQKSGTAPKLLIYSTSNLASGVPSRFSGSGSGTDFTFTISSLQPEDAATYYCHQWNSYPCTFGGGTKLEIK | 0.762 nM | 1.14 |  | 
4 | hGPN06-1_H1L1 VH G108A (antibody, V domains shown) VH: QVQLVQSGAEVKKPGASVKVSCKASGYTFTDNWMGWVKQRPGQGLEWIGAIDPSDSFTNYNQNFKGRVTMTVDTSISTAYMELSRLRSDDSAVYFCTRSGYYGSPKLAGDYWGQGTLVTVSS VL: EIVLTQSPSSLSASVGDRVTITCSASSSISYMHWYQQKSGTAPKLLIYSTSNLASGVPSRFSGSGSGTDFTFTISSLQPEDAATYYCHQWNSYPCTFGGGTKLEIK | 0.476 nM | 0.96 |  | 
5 | hGPN06-1_H1L1 VH G109A (antibody, V domains shown) VH: QVQLVQSGAEVKKPGASVKVSCKASGYTFTDNWMGWVKQRPGQGLEWIGAIDPSDSFTNYNQNFKGRVTMTVDTSISTAYMELSRLRSDDSAVYFCTRSGYYGSPKLGADYWGQGTLVTVSS VL: EIVLTQSPSSLSASVGDRVTITCSASSSISYMHWYQQKSGTAPKLLIYSTSNLASGVPSRFSGSGSGTDFTFTISSLQPEDAATYYCHQWNSYPCTFGGGTKLEIK | 4.89 nM | 0.34 |  | 
6 | hGPN06-1_H1L1 VH K106A (antibody, V domains shown) VH: QVQLVQSGAEVKKPGASVKVSCKASGYTFTDNWMGWVKQRPGQGLEWIGAIDPSDSFTNYNQNFKGRVTMTVDTSISTAYMELSRLRSDDSAVYFCTRSGYYGSPALGGDYWGQGTLVTVSS VL: EIVLTQSPSSLSASVGDRVTITCSASSSISYMHWYQQKSGTAPKLLIYSTSNLASGVPSRFSGSGSGTDFTFTISSLQPEDAATYYCHQWNSYPCTFGGGTKLEIK | 0.441 nM | 1 |  | 
7 | hGPN06-1_H1L1 VH L107A (antibody, V domains shown) VH: QVQLVQSGAEVKKPGASVKVSCKASGYTFTDNWMGWVKQRPGQGLEWIGAIDPSDSFTNYNQNFKGRVTMTVDTSISTAYMELSRLRSDDSAVYFCTRSGYYGSPKAGGDYWGQGTLVTVSS VL: EIVLTQSPSSLSASVGDRVTITCSASSSISYMHWYQQKSGTAPKLLIYSTSNLASGVPSRFSGSGSGTDFTFTISSLQPEDAATYYCHQWNSYPCTFGGGTKLEIK | 1.05 nM | 0.71 |  | 
8 | hGPN06-1_H1L1 VH P105A (antibody, V domains shown) VH: QVQLVQSGAEVKKPGASVKVSCKASGYTFTDNWMGWVKQRPGQGLEWIGAIDPSDSFTNYNQNFKGRVTMTVDTSISTAYMELSRLRSDDSAVYFCTRSGYYGSAKLGGDYWGQGTLVTVSS VL: EIVLTQSPSSLSASVGDRVTITCSASSSISYMHWYQQKSGTAPKLLIYSTSNLASGVPSRFSGSGSGTDFTFTISSLQPEDAATYYCHQWNSYPCTFGGGTKLEIK | 1.18 nM | 1.09 |  | 
9 | hGPN06-1_H1L1 VH R98A (antibody, V domains shown) VH: QVQLVQSGAEVKKPGASVKVSCKASGYTFTDNWMGWVKQRPGQGLEWIGAIDPSDSFTNYNQNFKGRVTMTVDTSISTAYMELSRLRSDDSAVYFCTASGYYGSPKLGGDYWGQGTLVTVSS VL: EIVLTQSPSSLSASVGDRVTITCSASSSISYMHWYQQKSGTAPKLLIYSTSNLASGVPSRFSGSGSGTDFTFTISSLQPEDAATYYCHQWNSYPCTFGGGTKLEIK | 53.2 nM | 0.05 |  | 
10 | hGPN18-2_H2L3 VH Y101A (antibody, V domains shown) VH: QVQLVQSGPGLVQPTQTLTLTCSFSGFSLSTSVMGVGWIRQPSGKGLEWLADIWWDDDKDYNPSLKSRLTISKDTSKNQVVLTMTNMDTVDTATYYCARTAYSNYEYYGMDYWGQGTLVTVSS VL: DIVMTQSPDSLAVSLGERATINCRSSQTIILSNGNTYLEWYQQKPGQPPKLLIYKVSNRFSGVPDRFSGSGSGTDFTLTISSLQAEDVAVYYCFQGSHVPFTFGSGTKLEIKR |  |  | 7.68 nM | 0.61
11 | hGPN18-2_H2L3 VH Y102A (antibody, V domains shown) VH: QVQLVQSGPGLVQPTQTLTLTCSFSGFSLSTSVMGVGWIRQPSGKGLEWLADIWWDDDKDYNPSLKSRLTISKDTSKNQVVLTMTNMDTVDTATYYCARTYASNYEYYGMDYWGQGTLVTVSS VL: DIVMTQSPDSLAVSLGERATINCRSSQTIILSNGNTYLEWYQQKPGQPPKLLIYKVSNRFSGVPDRFSGSGSGTDFTLTISSLQAEDVAVYYCFQGSHVPFTFGSGTKLEIKR |  |  | 49.1 nM | 0.07
12 | hGPN18-2_H2L3 VH Y105A (antibody, V domains shown) VH: QVQLVQSGPGLVQPTQTLTLTCSFSGFSLSTSVMGVGWIRQPSGKGLEWLADIWWDDDKDYNPSLKSRLTISKDTSKNQVVLTMTNMDTVDTATYYCARTYYSNAEYYGMDYWGQGTLVTVSS VL: DIVMTQSPDSLAVSLGERATINCRSSQTIILSNGNTYLEWYQQKPGQPPKLLIYKVSNRFSGVPDRFSGSGSGTDFTLTISSLQAEDVAVYYCFQGSHVPFTFGSGTKLEIKR |  |  | 15.6 nM | 0.47
13 | hGPN18-2_H2L3 VH Y107A (antibody, V domains shown) VH: QVQLVQSGPGLVQPTQTLTLTCSFSGFSLSTSVMGVGWIRQPSGKGLEWLADIWWDDDKDYNPSLKSRLTISKDTSKNQVVLTMTNMDTVDTATYYCARTYYSNYEAYGMDYWGQGTLVTVSS VL: DIVMTQSPDSLAVSLGERATINCRSSQTIILSNGNTYLEWYQQKPGQPPKLLIYKVSNRFSGVPDRFSGSGSGTDFTLTISSLQAEDVAVYYCFQGSHVPFTFGSGTKLEIKR |  |  | 60.9 nM | 0.06
14 | hGPN18-2_H2L3 VH Y108A (antibody, V domains shown) VH: QVQLVQSGPGLVQPTQTLTLTCSFSGFSLSTSVMGVGWIRQPSGKGLEWLADIWWDDDKDYNPSLKSRLTISKDTSKNQVVLTMTNMDTVDTATYYCARTYYSNYEYAGMDYWGQGTLVTVSS VL: DIVMTQSPDSLAVSLGERATINCRSSQTIILSNGNTYLEWYQQKPGQPPKLLIYKVSNRFSGVPDRFSGSGSGTDFTLTISSLQAEDVAVYYCFQGSHVPFTFGSGTKLEIKR |  |  | 4.7 nM | 0.91
15 | hGPN18-2_H2L3 VH Y112A (antibody, V domains shown) VH: QVQLVQSGPGLVQPTQTLTLTCSFSGFSLSTSVMGVGWIRQPSGKGLEWLADIWWDDDKDYNPSLKSRLTISKDTSKNQVVLTMTNMDTVDTATYYCARTYYSNYEYYGMDAWGQGTLVTVSS VL: DIVMTQSPDSLAVSLGERATINCRSSQTIILSNGNTYLEWYQQKPGQPPKLLIYKVSNRFSGVPDRFSGSGSGTDFTLTISSLQAEDVAVYYCFQGSHVPFTFGSGTKLEIKR |  |  | 3.73 nM | 1.05
